Experimental data taken from the supplement of paper PMC12042874.
± gives the uncertainty stated by the source.

Experiment: amyloid nucleation score (Sup35N fusion, yeast selection) (log enrichment); library NNK1; higher = more nucleation; inactive = no reads after selection
Method in brief: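 On medium lacking adenine and uracil, psi-negative yeast expressing peptides of 20 random codons fused to Sup35N were grown 7 days at 30°C after a 24-hour induction with 100 μM copper sulfate. Illumina sequencing of input and output plasmid inserts gave the reads, and sequences under 100 input reads were excluded. The nucleation score is the DiMSum log enrichment of output over input reads, centred on the mode score of non-aggregating sequences.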

Substance	amyloid nucleation score
CDLFSRACGSAMDTYNKSHI	-1.01 ± 0.9
GLQEVCWC	-1.67 ± 2.4
GNNRCDVIIMVFFK	1.7 ± 0.12
SRQRSYRDWVATFTF	-0.339 ± 0.52
THWGRVELMFFRSSKHRLT	-0.334 ± 1
PWPVSFYFMVNIVWCGRVIL	1.06 ± 0.26
VLYSELLGFRKSIIIMVWTR	-0.015 ± 0.28
AELSITASTNMESNLVNSIR	-1.69 ± 2.7
VARHGEGFNW	0.446 ± 0.64
CRLDGT	-0.36 ± 0.72
LIKKKSNSIYMI	-0.062 ± 0.3
SIGLC	1.31 ± 0.76
HHAFFDIPRVRGEYECFAGI	0.192 ± 0.25
IVVYVCIVGNNAPSLDAKSV	0.923 ± 0.23
LFLECNDTLHRATTGVNLFK	0.206 ± 1.6
NLLSALNMVVFHNLEFYVIF	2.58 ± 0.25
SRTICGSEILTSKKTRFHAS	-0.702 ± 1.7
VKRHNLLCWRFMDFTINLGG	4.01 ± 0.13
AGSEVFEK	0.073 ± 0.32
CRCMLSLLRIRLGVSSARLG	0.143 ± 0.49
KANCCCVSHWCCGYMQ	4.63 ± 0.052
NRQSNSVVYNARQETFIRHL	3.39 ± 0.14

Substance	amyloid nucleation score
VFESWKFELRVWIVVTFLHG	0.21 ± 0.52
HVGRIPGEVYSLKFTGLGRY	-0.839 ± 0.95
YMIWTIFNMVSIGRPQFLRL	-0.716 ± 0.56
LLGIEFTSDLLPIPSISPNE	0.239 ± 0.63
YKWIDRMVDERQLMSSKRQW	0.099 ± 0.66
YGPGWTRWLENLSLYSMYEP	-0.102 ± 1.5
ISVKHKFPGANSSVRWDRFW	3.47 ± 0.11
RVWCKWH	0.027 ± 1.4
FIYFYGRYNSSGDPFQVFLG	-0.578 ± 0.34
LSGLRNVLPLLTMYASIMKV	0.688 ± 0.7
TVRLKLINRYPDENRLYTDH	1.3 ± 0.21
SDLWLLECWTLDICGWLKAT	0.992 ± 0.58
FFRTLTWR	1.11 ± 0.55
LCCFKSFVSENMN	6.447 ± 0.05
NSMIVAHKLDCACPASAKDR	4.94 ± 0.053
TNVFGILYFEYFLVLDG	0.208 ± 0.3
RSFVNARSSYDVGFFGWNGC	2.29 ± 0.14
VPHLNGCISFWNVSVGYKVP	5.44 ± 0.077
ELIHILDLVVTPGRFGRPVN	2.58 ± 0.36
GGLPGNRSYRGWSSIFACLR	0.021 ± 0.49
GTGHVFQCCRMTLLQSSLDG	-0.832 ± 0.88
IMWLLLPRYDLFFRLMYTAS	0.617 ± 0.46

Substance	amyloid nucleation score
WELMLTTH	0.453 ± 0.33
LKEDISPSELHTQLC	0.81 ± 0.54
SYLFWDRCYSA	-0.247 ± 0.4
DTKNAWLILSTYLDNLFHIS	0.976 ± 0.33
TSCSVSLVWLFLGVRLCVLC	-0.009 ± 0.24
LIINGD	0.609 ± 1.2
WDWHIGRKWV	-0.629 ± 0.62
TRGCLRPATSKSGMRPW	0.056 ± 0.69
YESRCGWASRNFSLSENQNS	inactive
YSTYQ	0.369 ± 0.29
KDVLVRFMYLG	-0.21 ± 0.68
GREMYRLLHLNVEYTHGTRY	3.79 ± 0.075
RINLVSVYDRSNDKVSIPS	0.454 ± 0.55
STYPLEEYKGSGCLAG	-0.522 ± 0.39
AMWYTRRMQVENVKTVLSLM	-0.027 ± 0.34
CMVSIQVVFKH	4.44 ± 0.1
FLYWLVDKLG	0.37 ± 0.51
EIKISSDGTVSMARGRWCQG	6.615 ± 0.05
DLPLGQRYSCAQVGGWSYYE	0.556 ± 0.45
ELKTFTDKIGG	inactive
SMCLCVYIWIALYGWVMLIP	0.217 ± 0.21
GIGVKSEGHVINDFYKLRER	0.002 ± 0.45

Substance	amyloid nucleation score
VLIGSLLCN	0.878 ± 0.41
RQEVKAMGRFTATSLGTHSR	0.399 ± 0.47
KVCVLLSSCIYDNLHVR	0.402 ± 1.4
VIVHIWRET	3.92 ± 0.11
IVSTMCPRTDGVPCDNF	-0.035 ± 0.36
YGPSNYTIAQSS	-0.234 ± 0.43
CFRISARFFRVQFHGVVCIW	1.51 ± 0.25
CGPELNESQG	-0.485 ± 0.67
AYVRGCLFILPFRPTQV	1.42 ± 0.14
RIVISCRFEYGLGVGSSGVP	0.156 ± 1.6
SGCGTGKVDVNWGLENAKAG	0.408 ± 0.59
PVLRTSWTCWA	-0.254 ± 0.6
MFFSCGVLTILNWIKLKMAR	-0.839 ± 1.1
TSCSLYIVMRCVWCIYRGAR	-0.866 ± 2.4
FHMPYLCNAKWRECLGFSAH	0.279 ± 1.4
GSCSYSYCTNFVRTMYGAYG	0.379 ± 0.71
SRTGRH	0.972 ± 0.93
FNLRTIARDL	-1.68 ± 0.97
DGTNSVRIASWLNIDEGAL	-0.225 ± 0.42
VIKMFRRSDDIVVSKPLRE	-0.3 ± 0.5
